The values below come from article PMC8266076.

What all share (assay): fluorescence anisotropy
Common to all, as to conditions: fluorescein-12-UTP incorporated during transcription; 50 mM Tris pH 7.5, 40 mM KCl, 10 mM MgCl2, 1 mM DTT, 10 nM fluorescein-labeled RNA, 21 C
On the technique in general: Polarisation of emitted light reports the rotation of a fluorescent probe.

Series [1] deals with A3C-A3Hhap II (synthetic double domain chimera) (Homo sapiens (synthetic chimera)).
In another series the test system is A3G (Homo sapiens).
The next series has as its system A3Hhap II (Homo sapiens).

With HIV-1 5'UTR RNA (nt 1-497), the dissociation constant Kd came out at 0.03 nM in series [1], 6.36 nM in the series on A3G (Homo sapiens) and 0.52 nM in the series with A3Hhap II (Homo sapiens).

One may read the Kd as the concentration at which binding is half-saturated. A higher Kd goes with a looser complex.
